The record followed here is publication PMC3670934, “Milligram Production and Biological Activity Characterization of the Human Chemokine Receptor CCR3” (PLoS ONE, 2013).

B1: CCL11 (eotaxin), home-made recombinant (ligand)
chain: not shown
notes: CCL11 (eotaxin), endogenous ligand of human CCR3; The detailed protocol is said to be submitted in a separate manuscript; Probably the mature chemokine without its signal peptide (surmised); also called eotaxin/CCL11; home-made CCL11
B2: Human chemokine receptor CCR3 with a C-terminal 10-His tag (receptor, UniProt P51677 1-355, looked up)
chain: MTTSLDTVETFGTTSYYDDVGLLCEKADTRALMAQFVPPLYSLVFTVGLLGNVVVVMILIKYRRLRIMTNIYLLNLAISDLLFLVTLPFWIHYVRGHNWVFGHGMCKLLSGFYHTGLYSEIFFIILLTIDRYLAIVHAVFALRARTVTFGVITSIVTWGLAVLAALPEFIFYETEELFEETLCSALYPEDTVYSWRHFHTLRMTIFCLVLPLLVMAICYTGIIKTLLRCPSKKKYKAIRLIFVIMAVFFIFWTPYNVAILLSSYQSILFGNDCERSKHLDLVMLVTEVIAYSHCCMNPVIYAFVGERFRKYLRHFFHRHLLMHLGRYIPFLPSEKLERTSSVSPSTAEPELSIVF
notes: human chemokine receptor CCR3; theoretical molecular weight with the tag 42 kDa; The form full length is read from the printed primers (start codon to the last codons of the gene, then tag and stop); By the reverse primer two glycine codons seem to lie between the last CCR3 residue and the ten histidines (surmised from the primer); also called hCCR3; source: also in detergent cell lysate; not …
B3: commercial recombinant human CCL11 (PeproTech) (ligand)
chain: not shown
notes: recombinant human chemokine CCL11, bought; No catalogue number printed; probably the mature chemokine (surmised); also called CCL11 from PeproTech; commercial CCL11; source: bought: PeproTech (USA)
B4: CCL24 (eotaxin-2), home-made recombinant (ligand, human, UniProt O00175 27-119, looked up)
chain: VVIPSPCCMFFVSKRIPENRVVSYQLSSRSTCLKAGVIFTTKKGQQFCGDPKQEWVQRYMKNLDAKQKKASPRARAVAVKGPVQRYPGNQTTC
notes: CCL24 (eotaxin-2), endogenous ligand of human CCR3; The detailed protocol is said to be submitted in a separate manuscript; Probably the mature chemokine without its signal peptide (surmised); also called eotaxin-2/CCL24; home-made CCL24
B5: commercial recombinant human CCL24 (PeproTech) (ligand, UniProt O00175 27-119, looked up)
chain: B4 chain
notes: recombinant human chemokine CCL24, bought; No catalogue number printed; probably the mature chemokine (surmised); also called CCL24 from PeproTech; commercial CCL24; source: bought: PeproTech (USA)

The target of data set [1] is B2. Kind of data set: SPR; Biacore T100; His-tagged hCCR3 immobilised on a Ni-activated NTA sensor chip, chemokine flowed at 30 µl/min; 25°C; 10 mM HEPES, 0.15 M NaCl, 0.1% (wt/vol) FC-14, pH 7.4; hCCR3 purified in FC-14; 1:1 binding model, KD = kd/ka. The following applies: both partners purified. For orientation: Surface plasmon resonance follows binding to a sensor surface in real time, without labels.

Data set [2] addresses B2. Put plainly: SPR; Biacore T100; His-tagged hCCR3 immobilised on a Ni-activated NTA sensor chip, chemokine flowed at 30 µl/min; 25°C; 10 mM HEPES, 0.15 M NaCl, 0.1% (wt/vol) DDM, pH 7.4; hCCR3 purified in DDM; 1:1 binding model, KD = kd/ka. To be noted: both partners purified.
Data set [3] concerns the molecule itself. Kind of data set: SDS-PAGE and western blot; hCCR3 after Ni affinity chromatography in FC-14; 4-12% NuPAGE Bis-Tris gel, LDS sample buffer with reducing agent, not heated; anti-His blot; bands at about 34, 58, 82 and 115 kDa.
Data set [4] has as its target B2. Put plainly: SPR; Biacore T100; His-tagged hCCR3 immobilised on a Ni-activated NTA sensor chip, chemokine flowed at 30 µl/min; 25°C; 10 mM HEPES, 0.15 M NaCl, 0.1% (wt/vol) DDM, pH 7.4; hCCR3 purified in DDM; 1:1 binding model, KD = kd/ka. To be noted: both partners purified. The source holds these as a separate data set.
Data set [5] has as its target B2. Put plainly: SPR; Biacore T100; His-tagged hCCR3 immobilised on a Ni-activated NTA sensor chip, chemokine flowed at 30 µl/min; 25°C; 10 mM HEPES, 0.15 M NaCl, 0.1% (wt/vol) FC-14, pH 7.4; hCCR3 purified in FC-14; 1:1 binding model, KD = kd/ka. To be noted: both partners purified. This is another data set of the same source.

Broadly, the Kd is a measure of binding affinity in units of concentration. As a reminder, the koff is the first-order rate constant of dissociation. Read a high koff as a short-lived complex. Broadly, the kon is the second-order rate constant of association. High values mean faster complex formation, low ones slower complex formation. As for B1, in data set [1], the Kd came to 1300 nM, the koff turned out to be 0.063 s⁻¹ and the kon amounted to 49000 M⁻¹ s⁻¹. In data set [2], this molecule gave a Kd of 70 nM, a koff of 0.017 s⁻¹ and a kon of 250000 M⁻¹ s⁻¹.

In the case of B2, in data set [3], the binding result was “binds”.

On to B3, for which the Kd in data set [4] was determined as 730 nM. In other words, the sub-micromolar range.

In data set [1], B4 displayed a Kd of 1600 nM, a koff of 0.037 s⁻¹ and a kon of 22000 M⁻¹ s⁻¹. This molecule also displayed a kon in data set [5] of 23000 M⁻¹ s⁻¹. In data set [2], this molecule came in with a Kd of 58 nM, a koff of 0.003 s⁻¹ and an on-rate (kon) of 51000 M⁻¹ s⁻¹.

Consider B5, for which binding in data set [4] was characterised by a dissociation constant (Kd) of 210 nM.
